{"source": "paper PMC2779847", "key": {"[1]": {"biological_target": "MsDps2 protein (second Dps homologue of Mycobacterium smegmatis) (Mycobacterium smegmatis)", "assay": "native gel or EMSA; 10% native gel; BSA and ferritin as markers; oligomeric state of the purified protein"}, "[2]": {"biological_target": "MsDps2 protein (second Dps homologue of Mycobacterium smegmatis) (Mycobacterium smegmatis)", "assay": "negative-stain transmission electron microscopy; MsDps2 in 20 mM Tris, 200 mM NaCl on copper grids, stained with uranyl acetate, 80 kV, 50,000x"}, "[3]": {"biological_target": "MsDps2ΔN15 (MsDps2 lacking 15 amino acids from the N-terminus) (Mycobacterium smegmatis)", "assay": "native gel or EMSA; 10% native gel; BSA and ferritin as markers; oligomeric state of the purified protein"}}}
{"substance": "MsDps2 protein (second Dps homologue of Mycobacterium smegmatis) (natural protein)", "values": [{"measurement": "stoichiometry N", "setting": "[1]", "value": 12}, {"measurement": "stoichiometry N", "setting": "[2]", "value": 12}]}
{"substance": "MsDps2ΔN15 (MsDps2 lacking 15 amino acids from the N-terminus) (domain or fragment)", "values": [{"measurement": "stoichiometry N", "setting": "[3]", "value": 12}]}
